Assay results as given in publication PMC10202830, “Cingulin and paracingulin tether myosins-2 to junctions to mechanoregulate the plasma membrane” (The Journal of Cell Biology, 2023).
Read-outs that look alike come from different tables or passages of the source. Blank lines part the entries; values can stand above or below the molecule they belong to.

Key:
[1] = molecular target: T1, His-tagged mZU5 (1520–1745) (mouse, UniProt P39447 1520-1745); experiment: MST; labelled target His-tagged mZU5 (1520–1745; red tris-NTA dye, 50 nM); GST-mCGN (1–112) or GST-mCGNL1 (1–122) 0–1,000 nM in PBS-T; Monolith NT.115 fit; n = 5
T1 construct: mouse ZO-1, residues 1520-1745 (ZU5-containing region); Labelled with the red tris-NTA dye through its His tag in the MST; also called ZU5-containing region of mZO-1 (residues 1520–1745); ZU5-containing fragment
T1 sequence (looked up): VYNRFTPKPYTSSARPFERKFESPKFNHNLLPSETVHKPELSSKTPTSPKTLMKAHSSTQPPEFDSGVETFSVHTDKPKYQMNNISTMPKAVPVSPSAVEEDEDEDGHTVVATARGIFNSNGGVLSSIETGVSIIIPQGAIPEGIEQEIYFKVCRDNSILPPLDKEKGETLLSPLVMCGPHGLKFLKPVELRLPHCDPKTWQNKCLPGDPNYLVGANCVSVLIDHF

[2] = molecular target: His-tagged hCGN Rod2 (667–1203), purified (human) (UniProt Q9P2M7); experiment: MST; labelled target His-tagged hCGN Rod2 (red tris-NTA dye, 200 nM); ligands hNM2A rod or hNM2B rod 0–10,000 nM; PBS with 0.05% Tween 20; Monolith NT.115 fit; n = 7
[3] = molecular target: T2, full-length hCGNL1 (10xHis-2xStrep), purified (human, UniProt Q0VF96 1-1302); experiment: pull-down; affinity purified GST-tagged cNM2A, cNM2B, cNM2C rod fragments as baits; His-tagged full-length CGN and CGNL1 purified from baculovirus-infected insect cells as preys; IB with anti-His (Fig. 1 H–J); settings: both partners purified
T2 construct: human paracingulin (CGNL1), 1–1,302aa, in pACEBac1; the plasmid list prints this construct as 'hCGN-FL-10xHis-2xStrep (1–1,302aa; S2518)'; also called His-tagged full-length CGNL1; purified CGNL1; source: baculovirus-infected insect cells, purified (StrepTag resin)
T2 sequence (looked up): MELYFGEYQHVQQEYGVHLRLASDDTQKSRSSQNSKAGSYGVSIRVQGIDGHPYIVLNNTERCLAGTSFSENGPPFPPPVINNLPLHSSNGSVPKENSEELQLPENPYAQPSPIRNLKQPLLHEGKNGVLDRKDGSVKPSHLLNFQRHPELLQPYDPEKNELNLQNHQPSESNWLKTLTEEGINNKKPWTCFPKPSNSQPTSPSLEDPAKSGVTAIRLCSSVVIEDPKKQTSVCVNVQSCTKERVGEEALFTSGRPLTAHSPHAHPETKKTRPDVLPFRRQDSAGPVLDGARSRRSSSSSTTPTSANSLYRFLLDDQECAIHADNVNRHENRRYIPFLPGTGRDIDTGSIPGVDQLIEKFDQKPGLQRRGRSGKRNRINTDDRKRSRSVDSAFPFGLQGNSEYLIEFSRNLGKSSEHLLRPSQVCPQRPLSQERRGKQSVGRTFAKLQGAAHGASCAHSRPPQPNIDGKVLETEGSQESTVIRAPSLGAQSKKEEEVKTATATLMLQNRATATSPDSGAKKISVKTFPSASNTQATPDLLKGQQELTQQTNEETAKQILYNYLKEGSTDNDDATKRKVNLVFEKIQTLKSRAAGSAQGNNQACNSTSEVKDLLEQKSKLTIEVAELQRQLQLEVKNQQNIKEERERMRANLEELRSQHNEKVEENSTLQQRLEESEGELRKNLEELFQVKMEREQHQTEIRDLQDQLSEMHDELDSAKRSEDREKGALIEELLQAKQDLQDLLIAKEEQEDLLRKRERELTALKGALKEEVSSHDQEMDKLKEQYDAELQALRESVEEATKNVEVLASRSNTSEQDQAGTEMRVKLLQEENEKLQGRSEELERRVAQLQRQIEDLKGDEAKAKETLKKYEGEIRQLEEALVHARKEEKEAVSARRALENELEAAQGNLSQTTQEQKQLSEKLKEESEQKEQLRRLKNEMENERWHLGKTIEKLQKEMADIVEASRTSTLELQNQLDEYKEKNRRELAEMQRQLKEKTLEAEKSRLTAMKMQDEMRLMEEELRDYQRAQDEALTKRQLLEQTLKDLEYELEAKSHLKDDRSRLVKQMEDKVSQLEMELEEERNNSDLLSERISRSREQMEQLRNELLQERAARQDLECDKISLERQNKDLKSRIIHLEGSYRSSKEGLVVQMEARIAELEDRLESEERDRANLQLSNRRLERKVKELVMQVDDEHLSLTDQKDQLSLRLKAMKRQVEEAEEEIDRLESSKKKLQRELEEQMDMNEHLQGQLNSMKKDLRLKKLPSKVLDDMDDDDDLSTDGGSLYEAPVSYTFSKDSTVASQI

CGN = molecular target: T3, CGN (Mus musculus (Mouse), UniProt P59242); experiment: MST, GST-fusion ligands (GST dimer)
T3 chain: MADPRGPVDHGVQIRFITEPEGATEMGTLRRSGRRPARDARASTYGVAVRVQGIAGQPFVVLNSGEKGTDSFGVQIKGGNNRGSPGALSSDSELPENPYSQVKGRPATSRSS

CGNL1 = molecular target: T4, CGNL1 (Mus musculus (Mouse), UniProt Q6AW69); experiment: MST, GST-fusion ligands (GST dimer)
T4 chain: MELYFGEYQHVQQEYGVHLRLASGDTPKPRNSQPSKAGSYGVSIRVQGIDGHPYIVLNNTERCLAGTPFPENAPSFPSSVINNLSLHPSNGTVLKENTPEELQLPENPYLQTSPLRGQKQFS

His-tagged hCGN Rod2 (667–1203), purified (human), sequence (Q9P2M7 667-1203): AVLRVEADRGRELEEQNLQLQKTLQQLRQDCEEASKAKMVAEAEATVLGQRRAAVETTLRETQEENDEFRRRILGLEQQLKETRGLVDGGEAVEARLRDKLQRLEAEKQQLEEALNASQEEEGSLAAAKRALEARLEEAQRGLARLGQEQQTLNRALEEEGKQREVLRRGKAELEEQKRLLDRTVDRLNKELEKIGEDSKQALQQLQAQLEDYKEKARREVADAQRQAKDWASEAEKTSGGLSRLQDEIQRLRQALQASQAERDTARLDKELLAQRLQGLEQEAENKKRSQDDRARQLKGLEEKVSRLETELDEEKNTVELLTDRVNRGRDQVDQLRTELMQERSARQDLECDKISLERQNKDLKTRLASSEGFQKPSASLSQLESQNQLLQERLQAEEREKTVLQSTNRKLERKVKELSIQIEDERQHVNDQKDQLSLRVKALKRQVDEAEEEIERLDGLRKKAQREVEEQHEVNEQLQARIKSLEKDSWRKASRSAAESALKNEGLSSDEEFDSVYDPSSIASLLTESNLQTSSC

Molecule: GST-mCGN (1–112) (from UniProt P59242 1-112) (domain or fragment)
- Kd [1]: 7.7 nM

B3: ZO1 (protein)
chain: EDEDEDGHTVVATARGIFNSNGGVLSSIETGVSIIIPQGAIPEGIEQEIYFKVCRDNSILPPLDKEKGETLLSPLVMCGPHGLKFLKPVELRLPHCDPKTWQNKCLPGDPNYLVGANCVSVLIDHF
- Kd (CGN): 7.7 nM
- Kd (CGNL1): 79.8 nM

B4: GST-mCGNL1 (1–122) (domain or fragment)
chain: MELYFGEYQHVQQEYGVHLRLASGDTPKPRNSQPSKAGSYGVSIRVQGIDGHPYIVLNNTERCLAGTPFPENAPSFPSSVINNLSLHPSNGTVLKENTPEELQLPENPYLQTSPLRGQKQFS
- Kd ([1]; both partners purified): 79.8 nM

The remaining lines, values ahead:

- Kd [2]: 346 nM
Molecule: hNM2B rod (1337–1976), purified (from UniProt P35580 1337-1976) (domain or fragment)

- Kd [2]: 3620 nM
Molecule: hNM2A rod (1330–1960), purified (from UniProt P35579 1330-1960) (domain or fragment)

- binding result [3]: binds
B1: GST-cNM2A (1461–1960) (domain or fragment, canis (dog), UniProt Q258K2 1461-1960, looked up)
chain: AEERDRAEAEAREKETKALSLARALEEAMEQKAELERLNKQFRTEMEDLMSSKDDVGKSVHELEKSKRALEQQVEEMKTQLEELEDELQATEDAKLRLEVNLQAMKAQFERDLQGRDEQSEEKKKQLVRQVREMEAELEDEKKQRSMAVAARKKLEMDLKDLEAHIDSANKNRDEAIKQLRKLQAQMKDCVRELDDTRASREEILAQAKENEKKMKSMEAEMIQLQEELAAAERAKRQAQQERDELADEIANSSGKGALALEEKRRLEARIAQLEEELEEEQGNTELVNDRLKKANLQIDQINTDLNLERSHAQKNENARQQLERQNKELKVKLQEMEGTVKSKYKASITALEAKIAQLEEQLDNETKERQAACKQVRRAEKKLKDVLLQVDDERRNAEQFKDQADKASTRLKQLKRQLEEAEEEAQRANASRRKLQRELEDATETADAMNREVSSLKNKLRRGDLPFVVPRRVARKGAGDCSDEEVDGKADGAEAKAAE
notes: canis nonmuscle myosin-2A heavy chain, rod fragment 1461-1960; also called NM2A rod bait, last ≈500 residues; not shown: GST, N-terminal, kept

- binding result [3]: binds
B2: GST-cNM2A (1711–1960) (domain or fragment, canis (dog), UniProt Q258K2 1711-1960, looked up)
chain: ANSSGKGALALEEKRRLEARIAQLEEELEEEQGNTELVNDRLKKANLQIDQINTDLNLERSHAQKNENARQQLERQNKELKVKLQEMEGTVKSKYKASITALEAKIAQLEEQLDNETKERQAACKQVRRAEKKLKDVLLQVDDERRNAEQFKDQADKASTRLKQLKRQLEEAEEEAQRANASRRKLQRELEDATETADAMNREVSSLKNKLRRGDLPFVVPRRVARKGAGDCSDEEVDGKADGAEAKAAE
notes: canis nonmuscle myosin-2A heavy chain, rod and tail fragment 1711-1960; also called last 250 residues of NM2A; not shown: GST, N-terminal, kept
